Results from article PMC9279156, “A peroxisomal ubiquitin ligase complex forms a retrotranslocation channel” (Nature, 2022).

B1: T. thermophilus Pex10 (1–454) (natural protein, Thermothelomyces thermophilus, UniProt G2Q0E2 1-454, looked up)
chain: MATQPPPARPPPPLTSSPYPYAAAPDIIRAHQKDAYFQGVLANRLSDLHRRLRGARSAHAWAAETRTFAAALYLCLTTLLGNRTLGEEYCDLVQVEEAPSKLFASSSSKAADDHIYENGLGGGGDGGPLLPSLPRRAGYILTAIVLPHLASRALPSVRSAIRKRLQSRLATLSRRRQQTGTKSGSGRGGRGGGGGITEYRVLRYLLTHLTPLTSGAHFRAATLAVFYFTGAYYELSKWVWGLRYVFTTRAGRVVDDDHNRHHHSPQHGGGNGGRAGYEVLGVLLVVQMAVRAWLHVREQLSSGSVAGGGGEEEEDGEDGFRERTAFGPGTNVDVSLDEHAFTSNNELLGGGGGGGGSSSQRSLGEIGAMAHTPVLKAGRARYDLGTSDKVMGWIKGAQQRKCTLCLEELKDPAATQCGHVFCWACIGDWVREKPECPLCRREAMVQHILPLRAA
notes: Pex10 of Thermothelomyces thermophilus, residues 1-454; codon-optimised synthetic gene; also called T.t; Pex10; source: P. pastoris SMD1168, co-expressed with Pex2 and Pex12, purified (streptavidin resin, gel filtration) in digitonin
B2: T. thermophilus Pex2 (140–495) (domain or fragment, Thermothelomyces thermophilus, UniProt G2Q1C9 140-495, looked up)
chain: SREGTRPAFRVGQVDAELLDEELVELLRGQVREALRYVGGGGGGGGGGGGGGVGSGVAQDWEAEISLALRAVLFKLTVWDHDATYGAALQNLKYTDARRDGPALAPPSRWQKALYGLVTVGGRYLWAKWEDWLLEQDDGFEGPSPRVKRLARWTSALSTLHASAALVSFLVFLLHGRYRTLLDRLLRMRLAPPTSQVSREVSFEYLNRQLVWHAFTEFLLFVLPLVGINRWRRWLARTWRRTKKIMTADADGGAGDKKGEYSFLPERTCAICYRDQNSASSETELLAAASGGVVGSAQTDITNPYEAIPCGCTYCFVCLATRIEREEGEGWPCLRCGELIKECKPWNGDVLEEPQV
notes: Pex2 of Thermothelomyces thermophilus, residues 140-495; codon-optimised synthetic gene; also called T.t; Pex2; source: P. pastoris SMD1168, co-expressed with Pex10 and Pex12, purified (streptavidin resin, gel filtration) in digitonin

Target: T1, T. thermophilus Pex12 (1–439) with an N-terminal SBP tag (Thermothelomyces thermophilus, UniProt G2Q5N0 1-439)
T1 construct: Pex12 of Thermothelomyces thermophilus, residues 1-439; codon-optimised synthetic gene; the SBP tag is followed by a HRV3C protease cleavage site; also called T.t; Pex12; source: P. pastoris SMD1168, co-expressed with Pex2 and Pex10, purified (streptavidin resin, gel filtration) in digitonin; not shown: SBP, N-terminal, kept
T1 sequence (looked up): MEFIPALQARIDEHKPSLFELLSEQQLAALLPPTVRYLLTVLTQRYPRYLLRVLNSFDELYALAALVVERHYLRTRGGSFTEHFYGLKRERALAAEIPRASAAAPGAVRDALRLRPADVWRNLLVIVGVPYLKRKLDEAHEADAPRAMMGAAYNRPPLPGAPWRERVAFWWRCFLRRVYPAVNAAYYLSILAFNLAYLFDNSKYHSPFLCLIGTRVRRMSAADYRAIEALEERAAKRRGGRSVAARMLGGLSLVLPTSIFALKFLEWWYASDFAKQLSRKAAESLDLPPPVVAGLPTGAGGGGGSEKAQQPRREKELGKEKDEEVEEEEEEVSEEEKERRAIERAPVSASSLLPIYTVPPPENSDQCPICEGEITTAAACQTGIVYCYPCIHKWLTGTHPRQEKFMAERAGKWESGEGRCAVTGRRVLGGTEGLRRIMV
Assay: pull-down + SEC; Pex2, Pex10 and SBP-Pex12 co-expressed in P. pastoris; membranes solubilised in 1% LMNG; captured on streptavidin resin through SBP-Pex12, eluted with biotin, gel filtration (Superose 6) in 25 mM HEPES pH 7.4, 150 mM NaCl, 0.05% digitonin; fractions by SDS-PAGE and Coomassie staining
Conditions: partners not purified

| Binder | stoichiometry N |
| --- | --- |
| B1 | 1 |
| B2 | 1 |
